{"source": "paper PMC9478674", "about": "(Proceedings of the National Academy of Sciences of the …, 2022)", "molecular_target": "T1, KaiC S431E;T432A (KaiC-EA) (UniProt Q79PF4 1-519, S431E | T432A)", "T1 sequence (looked up)": "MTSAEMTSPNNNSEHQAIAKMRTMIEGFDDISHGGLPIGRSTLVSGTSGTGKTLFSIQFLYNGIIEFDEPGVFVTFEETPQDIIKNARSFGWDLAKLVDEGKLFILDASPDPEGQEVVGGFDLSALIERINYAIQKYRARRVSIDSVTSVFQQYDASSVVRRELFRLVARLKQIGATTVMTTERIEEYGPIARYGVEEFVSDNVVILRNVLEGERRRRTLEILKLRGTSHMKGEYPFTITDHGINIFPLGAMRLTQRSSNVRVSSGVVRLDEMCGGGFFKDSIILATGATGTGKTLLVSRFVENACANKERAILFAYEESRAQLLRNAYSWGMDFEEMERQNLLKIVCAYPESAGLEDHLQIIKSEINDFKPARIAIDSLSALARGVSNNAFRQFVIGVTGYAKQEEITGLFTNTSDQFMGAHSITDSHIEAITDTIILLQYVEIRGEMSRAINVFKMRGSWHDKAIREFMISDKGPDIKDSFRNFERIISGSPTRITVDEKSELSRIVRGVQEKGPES", "test": "co-IP"}
{"binder": "wildtype KaiB-FLAG (natural protein, UniProt Q79PF5 1-102, looked up) MSPRKTYILKLYVAGNTPNSVRALKTLKNILEVEFQGVYALKVIDVLKNPQLAEEDKILATPTLAKVLPLPVRRIIGDLSDREKVLIGLDLLYGELQDSDDF", "values": [{"measurement": "binding result", "value": "binds"}]}
